The target of test [1] is T1, human BCMA on cells (human, UniProt Q02223 1-184).
T1 sequence (looked up): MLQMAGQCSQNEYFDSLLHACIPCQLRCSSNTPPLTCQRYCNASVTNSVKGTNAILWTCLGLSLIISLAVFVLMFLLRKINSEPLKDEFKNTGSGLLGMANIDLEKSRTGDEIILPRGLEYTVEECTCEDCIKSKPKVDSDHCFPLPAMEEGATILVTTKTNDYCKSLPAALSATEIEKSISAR
Briefly: cell-based or functional assay.

In test [2] the target is T2, recombinant human BCMA Fc 4-53 (human).
T2 construct: also called CD33-hBCMA ECD (4-53) TEV-Fc; recombinant BCMA coated on an ELISA plate
Put plainly: competition ELISA, coated recombinant human BCMA Fc 4-53, blocked ligand recombinant human BAFF (6 ng/mL), biotinylated anti-BAFF detection [A]. As to the method: 96 well flat bottomed plates were coated overnight with 1 μg/mL solution of recombinant human BCMA Fc 4-53 in PBS. Following a wash step using 0.05% TWEEN20, plates were blocked with 2% Bovine Serum Albumin solution in PBS for 1 hour at room temperature. […] 40 μL of 2% BSA was added to the relevant control wells. […] Equivalent volume of 2% BSA was added to the relevant control wells. Plates were allowed to incubate for 2 hours at room temperature, after which they were washed as before. […] Following a wash step, 50 μL of a 1:4000 dilution of Streptavidin-HRP (Amersham RPN4401) was added to each well and incubated for 30 minutes at room temperature. The wash process was repeated again followed by the addition of 100 μL of Tetramethylbenzidine substrate solution (T8665, Sigma) into each well. Plates were incubated for 20-25 minutes at room temperature, wrapped in foil. The reaction was stopped with the addition of 100 μL of 1M H₂SO₄. Optical density was determined at 450 nm using Spectromax reader.
(In an ELISA, binding on a coated surface is turned into a signal by an enzyme label.)

Test [3] has as its target T3, recombinant human BCMA (in house) (human, UniProt Q02223 4-53, limits assumed).
T3 construct: Analyte in the ProteOn runs; also called Human in house BCMA; In house human BCMA
T3 chain (looked up): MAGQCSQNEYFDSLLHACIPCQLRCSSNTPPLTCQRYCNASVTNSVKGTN
Put plainly: SPR ProteOn XPR36, mAb captured on Protein A, 25C, run 2. As to the method: The initial screen of CA8 chimeric and humanised variants was carried out on the ProteOn XPR36 (Biorad). The method was as follows; Protein A was immobilised on a GLC chip (Biorad, Cat No: 176-5011) by primary amine coupling, CA8 variants were then captured on this surface and recombinant human BCMA (in house or commercial US Biological, B0410) materials (run 2 only)) passed over at 256, 64, 16, 4, 1 nM with a OnM injection (i.e. buffer alone) used to double reference the binding curves, the buffer used is the HBS-EP buffer. 50 mM NaOH was used to regenerate the capture surface. The data was fitted to the 1:1 model using the analysis software inherent to the ProteOn XPR36. […] Both runs were carried out at 25° C.

Test [4] addresses T3, recombinant human BCMA (in house). Briefly: SPR ProteOn XPR36, mAb captured on Protein A, 25C, run 1.
In test [5] the target is T1, human BCMA on cells. Briefly: FMAT, HEK293 cells transfected with human BCMA, anti-human IgG FMAT Blue detection. On the procedure:
(§1) Cryopreserved transfected human, cyno BCMA and mock transfected HEK293 cells were recovered from LN2 storage. […] The assay plates were left for a minimum of 90 minutes before the result was read on the AB18200 (FMAT) plate reader.

Test [6] has as its target T4, cyno BCMA on HEK293 cells (cyno, UniProt A0A2K5UD97 1-183).
T4 construct: whole, on cells; also called cyno BCMA HEK293
Put plainly: FMAT, HEK293 cells transfected with cyno BCMA, anti-human IgG FMAT Blue detection. As to the method:
as §1

Positions count from the first letter of the chain named.

T4 sequence (A0A2K5UD97 entry or part of it): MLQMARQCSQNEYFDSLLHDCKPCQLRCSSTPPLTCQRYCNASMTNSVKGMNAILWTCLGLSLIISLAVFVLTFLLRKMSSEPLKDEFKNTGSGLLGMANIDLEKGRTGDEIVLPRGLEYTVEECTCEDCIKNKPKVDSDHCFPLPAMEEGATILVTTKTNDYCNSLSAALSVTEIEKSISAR

B1: J6M0 potelligent (antibody, human IgG1, kappa, V domains shown)
VH: QVQLVQSGAEVKKPGSSVKVSCKASGGTFSNYWMHWVRQAPGQGLEWMGATYRGHSDTYYNQKFKGRVTITADKSTSTAYMELSSLRSEDTAVYYCARGAIYDGYDVLDNWGQGTLVTVSS
VL: DIQMTQSPSSLSASVGDRVTITCSASQDISNYLNWYQQKPGKAPKLLIYYTSNLHSGVPSRFSGSGSGTDFTLTISSLQPEDFATYYCQQYRKLPWTFGQGTKLEIKR
modifications: afucosylated (Potelligent) Fc glycan
notes: Same chains as J6M0, made in FUT8-deficient cells (afucosylated); human IgG1/kappa; also called J6M0 potelligent version; afucosylated (Potelligent) J6M0
For B1, in test [1], the “IC50 for inhibition of APRIL signalling (phosphorylated NFkappaB in washed H-929 cells, MSD assay)” value turned out to be 2.43 µg/mL and the “IC50 for inhibition of BAFF signalling (phosphorylated NFkappaB in washed H-929 cells, MSD assay)” value was 0.91 µg/mL. The “IC50 (read off the curve)” value in test [2] was roughly 0.8 µg/mL.

B2: CA8 humanised J8M1 (antibody, human IgG1, kappa, V domains shown)
VH: B1 VH with G27Y, S30T, A97T
VL: B1 VL with F71Y
notes: humanised, human IgG1/kappa
For the molecule B2, the binding result in test [3] is “binds”.

B3: CA8 humanised J7M1 (antibody, human IgG1, kappa, V domains shown)
VH: B1 VH with G27Y, S30T
VL: B1 VL with F71Y
notes: humanised, human IgG1/kappa
Take B3: the binding result in test [3] was “binds”.

B4: S307118G03 humanised H4L1 (antibody, human IgG1, kappa, V domains shown)
VH: QVQLVQSGAEVKKPGSSVKVSCKASGYTFTDYYMKWVRQAPGQGLEWMGEIYPNNGGITYNQKFKGRVTITADKSTSTAYMELSSLRSEDTAVYYCADGYEFVYWGQGTLVTVSS
VL: B1 VL with D28G, N53S, F71Y, R92S
notes: humanised, human IgG1/kappa
For the molecule B4, the binding result in test [4] was “no binding (tested: 256 nM (highest analyte concentration))”.

B5: CA8 humanised J6M0 (antibody, human IgG1, kappa, V domains shown)
VH: B1 VH
VL: B1 VL
notes: humanised, human IgG1/kappa; also called CA8 J6M0; humanised J6M0 (wild type)
For the molecule B5, the “IC50 (read off the curve)” value in test [2] is roughly 0.8 µg/mL.

B6: CA8 humanised J7M2 (antibody, human IgG1, kappa, V domains shown)
VH: B1 VH with G27Y, S30T
VL: B1 VL with M4L, K45E, L47V, F71Y
notes: humanised, human IgG1/kappa
As for B6, in test [3], the binding result is on record as “binds”.

B7: CA8 humanised J8M0 (antibody, human IgG1, kappa, V domains shown)
VH: B1 VH with G27Y, S30T, A97T
VL: B1 VL
notes: humanised, human IgG1/kappa
With B7, the binding result in test [3] is “binds”.

B8: CA8 humanised J8M2 (antibody, human IgG1, kappa, V domains shown)
VH: B1 VH with G27Y, S30T, A97T
VL: B1 VL with M4L, K45E, L47V, F71Y
notes: humanised, human IgG1/kappa
B8: the binding result in test [3] is “binds”.

B9: CA8 humanised J9M2 (antibody, human IgG1, kappa, V domains shown)
VH: B1 VH with A24G, G27Y, S30T, M48I, V68A, I70L, K74T, A97T
VL: B1 VL with M4L, K45E, L47V, F71Y
notes: humanised, human IgG1/kappa
In the case of B9, the binding result in test [3] is listed as “binds”.

B10: CA8 humanised J7M0 (antibody, human IgG1, kappa, V domains shown)
VH: B1 VH with G27Y, S30T
VL: B1 VL
notes: humanised, human IgG1/kappa
Consider B10, for which the binding result in test [3] is on record as “binds”.

B11: CA8 chimera (antibody, V domains shown)
VH: EVQLQQSGAVLARPGASVKMSCKGSGYTFTNYWMHWVKQRPGQGLEWIGATYRGHSDTYYNQKFKGKAKLTAVTSTSTAYMELSSLTNEDSAVYYCTRGAIYNGYDVLDNWGQGTLVTVSS
VL: DIQLTQTTSSLSASLGDRVTISCSASQDISNYLNWYQQKPDGTVELVIYYTSNLHSGVPSRFSGSGSGTDYSLTIGYLEPEDVATYYCQQYRKLPWTFGGGSKLEIKR
notes: also called chimeric CA8; human chimeric CA8
Broadly, the EC50 (read off the curve) is the concentration giving half of the maximal effect. Low readings indicate greater potency, high ones weaker potency. On to B11, for which the “EC50 (read off the curve)” value in test [5] is roughly 0.4 µg/mL; in test [6], roughly 0.3 µg/mL.

Values taken from US20140105915A1 (GlaxoSmithKline, published 2014).
